As a reminder, the Kd is the constant that tells how readily two partners part at equilibrium. Lower therefore signals a tighter complex.

This note sets out measurements from article PMC7413259.

Common to all, as to settings: 5' triphosphate, B1: 50 mM Tris-HCl pH 8.0, 150 mM NaCl, 1 mM MgCl2, 2 mM beta-mercaptoethanol, 10% glycerol, 20 C, B2: same with 100 mM NaCl
Data set [1] deals with T1, ZIKV NS5 MTase domain WT (Zika virus) (UniProt A0A142I5B9). Briefly: fluorescence anisotropy.
Data set [2] concerns the target T1, ZIKV NS5 MTase domain WT (Zika virus). The data set is described as follows: fluorescence titration.
For data set [3] the target is unchanged. The data set is described as follows: fluorescence titration. This is another data set of the same source.
For data set [4], the system named is ZIKV NS5 RdRp domain (Zika virus). The data set is described as follows: fluorescence titration.
The next data set addresses ZIKV NS5 WT (Zika virus) (UniProt A0A024B7W1). Briefly: fluorescence titration.

Regarding ZIKV SLA (SLA-F), the Kd in data set [1] came to 310 nM; in data set [2], 400 nM; in data set [3], 590 nM; in data set [4] it was 530 nM; with ZIKV NS5 WT (Zika virus), 280 nM.
